Target: Affinity-purified MHC class I molecules K^b with human β2m (mouse (H-2^b); human)

B1: K^b/S208-215-binding peptide 1 of HBsAgadw2 (IVSPFIPL) (peptide)
peptide: IVSPFIPL
- IC50: 773 nM
